Where a chain is given by its changes, count along the chain named. Names may count otherwise.
B1: NT^(E173A + K174A) (RyR2 residues 1–906) (domain or fragment, human, UniProt Q92736 1-906, looked up)
chain: MADGGEGEDEIQFLRTDDEVVLQCTATIHKEQQKLCLAAEGFGNRLCFLESTSNSKNVPPDLSICTFVLEQSLSVRALQEMLANTVEKSEGQVDVEKWKFMMKTAQGGGHRTLLYGHAILLRHSYSGMYLCCLSTSRSSTDKLAFDVGLQEDTTGEACWWTIHPASKQRSEGAAVRVGDDLILVSVSSERYLHLSYGNGSLHVDAAFQQTLWSVAPISSGSEAAQGYLIGGDVLRLLHGHMDECLTVPSGEHGEEQRRTVHYEGGAVSVHARSLWRLETLRVAWSGSHIRWGQPFRLRHVTTGKYLSLMEDKNLLLMDKEKADVKSTAFTFRSSKEKLDVGVRKEVDGMGTSEIKYGDSVCYIQHVDTGLWLTYQSVDVKSVRMGSIQRKAIMHHEGHMDDGISLSRSQHEESRTARVIRSTVFLFNRFIRGLDALSKKAKASTVDLPIESVSLSLQDLIGYFHPPDEHLEHEDKQNRLRALKNRQNLFQEEGMINLVLECIDRLHVYSSAAHFADVAGREAGESWKSILNSLYELLAALIRGNRKNCAQFSGSLDWLISRLERLEASSGILEVLHCVLVESPEALNIIKEGHIKSIISLLDKHGRNHKVLDVLCSLCVCHGVAVRSNQHLICDNLLPGRDLLLQTRLVNHVSSMRPNIFLGVSEGSAQYKKWYYELMVDHTEPFVTAEATHLRVGWASTEGYSPYPGGGEEWGGNGVGDDLFSYGFDGLHLWSGCIARTVSSPNQHLLRTDDVISCCLDLSAPSISFRINGQPVQGMFENFNIDGLFFPVVSFSAGIKVRFLLGGRHGEFKFLPPPGYAPCYEAVLPKEKLKVEHSREYKQERTYTRDLLGPTVSLTQAAFTPIPVDTSQIVLPPHLERIREKLAENIHELWVMNKIELGWQYGP
notes: cardiac ryanodine receptor (RyR2), N-terminus, residues 1-906, double alanine substitution E173 + K174; negative control mutant; source: HEK293, transiently transfected, in cell homogenate; not shown: cMyc, N-terminal, kept
B2: NT^(K167A + Q168A) (RyR2 residues 1–906) (domain or fragment, human, UniProt Q92736 1-906, looked up)
chain: B1 chain with K167A, Q168A, A173E, A174K
notes: cardiac ryanodine receptor (RyR2), N-terminus, residues 1-906, double alanine substitution K167 + Q168; source: HEK293, transiently transfected, in cell homogenate; not shown: cMyc, N-terminal, kept
B3: NT^(D179A + D180A) (RyR2 residues 1–906) (domain or fragment, human, UniProt Q92736 1-906, looked up)
chain: B1 chain with A173E, A174K, D179A, D180A
notes: cardiac ryanodine receptor (RyR2), N-terminus, residues 1-906, double alanine substitution D179 + D180; also called D179A + D180A mutant; source: HEK293, transiently transfected, in cell homogenate; not shown: cMyc, N-terminal, kept
B4: wild-type RyR2 N-terminus (NT, residues 1–906) tagged with the cMyc epitope (domain or fragment, human, UniProt Q92736 1-906, looked up)
chain: B1 chain with A173E, A174K
notes: cardiac ryanodine receptor (RyR2), N-terminus, residues 1-906; species is stated for the full-length RyR2 cDNA (human), not for NT itself; also called NT^WT; source: HEK293, transiently transfected, in cell homogenate (cross-linking) or CHAPS-solubilized lysate (co-IP); not shown: cMyc, N-terminal, kept
B5: NT^R176Q (RyR2 residues 1–906 with the arrhythmia-linked R176Q mutation) (domain or fragment, human, UniProt Q92736 1-906, looked up)
chain: B1 chain with A173E, A174K, R176Q
notes: cardiac ryanodine receptor (RyR2), N-terminus, residues 1-906, with the disease-linked (ARVD2, CPVT) mutation R176Q; source: HEK293, transiently transfected, in cell homogenate (cross-linking) or CHAPS-solubilized lysate (co-IP); not shown: cMyc, N-terminal, kept
B6: NT^Δβ8–β9 (RyR2 residues 1–906, residues 167–178 removed) (domain or fragment, human, UniProt Q92736 1-906, looked up)
chain: MADGGEGEDEIQFLRTDDEVVLQCTATIHKEQQKLCLAAEGFGNRLCFLESTSNSKNVPPDLSICTFVLEQSLSVRALQEMLANTVEKSEGQVDVEKWKFMMKTAQGGGHRTLLYGHAILLRHSYSGMYLCCLSTSRSSTDKLAFDVGLQEDTTGEACWWTIHPASDDLILVSVSSERYLHLSYGNGSLHVDAAFQQTLWSVAPISSGSEAAQGYLIGGDVLRLLHGHMDECLTVPSGEHGEEQRRTVHYEGGAVSVHARSLWRLETLRVAWSGSHIRWGQPFRLRHVTTGKYLSLMEDKNLLLMDKEKADVKSTAFTFRSSKEKLDVGVRKEVDGMGTSEIKYGDSVCYIQHVDTGLWLTYQSVDVKSVRMGSIQRKAIMHHEGHMDDGISLSRSQHEESRTARVIRSTVFLFNRFIRGLDALSKKAKASTVDLPIESVSLSLQDLIGYFHPPDEHLEHEDKQNRLRALKNRQNLFQEEGMINLVLECIDRLHVYSSAAHFADVAGREAGESWKSILNSLYELLAALIRGNRKNCAQFSGSLDWLISRLERLEASSGILEVLHCVLVESPEALNIIKEGHIKSIISLLDKHGRNHKVLDVLCSLCVCHGVAVRSNQHLICDNLLPGRDLLLQTRLVNHVSSMRPNIFLGVSEGSAQYKKWYYELMVDHTEPFVTAEATHLRVGWASTEGYSPYPGGGEEWGGNGVGDDLFSYGFDGLHLWSGCIARTVSSPNQHLLRTDDVISCCLDLSAPSISFRINGQPVQGMFENFNIDGLFFPVVSFSAGIKVRFLLGGRHGEFKFLPPPGYAPCYEAVLPKEKLKVEHSREYKQERTYTRDLLGPTVSLTQAAFTPIPVDTSQIVLPPHLERIREKLAENIHELWVMNKIELGWQYGP
notes: also called β8–β9 loop deletion; source: HEK293, transiently transfected, in cell homogenate (cross-linking) or CHAPS-solubilized lysate (co-IP); not shown: cMyc, N-terminal, kept
B7: NT^Δβ23–β24 (RyR2 residues 1–906, residues 399–401 removed) (domain or fragment, human, UniProt Q92736 1-906, looked up)
chain: MADGGEGEDEIQFLRTDDEVVLQCTATIHKEQQKLCLAAEGFGNRLCFLESTSNSKNVPPDLSICTFVLEQSLSVRALQEMLANTVEKSEGQVDVEKWKFMMKTAQGGGHRTLLYGHAILLRHSYSGMYLCCLSTSRSSTDKLAFDVGLQEDTTGEACWWTIHPASKQRSEGEKVRVGDDLILVSVSSERYLHLSYGNGSLHVDAAFQQTLWSVAPISSGSEAAQGYLIGGDVLRLLHGHMDECLTVPSGEHGEEQRRTVHYEGGAVSVHARSLWRLETLRVAWSGSHIRWGQPFRLRHVTTGKYLSLMEDKNLLLMDKEKADVKSTAFTFRSSKEKLDVGVRKEVDGMGTSEIKYGDSVCYIQHVDTGLWLTYQSVDVKSVRMGSIQRKAIMHHEGHGISLSRSQHEESRTARVIRSTVFLFNRFIRGLDALSKKAKASTVDLPIESVSLSLQDLIGYFHPPDEHLEHEDKQNRLRALKNRQNLFQEEGMINLVLECIDRLHVYSSAAHFADVAGREAGESWKSILNSLYELLAALIRGNRKNCAQFSGSLDWLISRLERLEASSGILEVLHCVLVESPEALNIIKEGHIKSIISLLDKHGRNHKVLDVLCSLCVCHGVAVRSNQHLICDNLLPGRDLLLQTRLVNHVSSMRPNIFLGVSEGSAQYKKWYYELMVDHTEPFVTAEATHLRVGWASTEGYSPYPGGGEEWGGNGVGDDLFSYGFDGLHLWSGCIARTVSSPNQHLLRTDDVISCCLDLSAPSISFRINGQPVQGMFENFNIDGLFFPVVSFSAGIKVRFLLGGRHGEFKFLPPPGYAPCYEAVLPKEKLKVEHSREYKQERTYTRDLLGPTVSLTQAAFTPIPVDTSQIVLPPHLERIREKLAENIHELWVMNKIELGWQYGP
notes: cardiac ryanodine receptor (RyR2), N-terminus, residues 1-906, with residues 399-401 removed; source: HEK293, transiently transfected, in cell homogenate; not shown: cMyc, N-terminal, kept

Biological target: the molecule itself
Experiment: cross-linking; HEK293 cell homogenate (20 μg) with glutaraldehyde (0.0025% or 260 μmol/L) for 0 min to 1 h under reducing (10 mM DTT) conditions; SDS-PAGE and blot with Ab^cMyc; tetramer formation T = ODT/(ODT + ODM) × 100 by densitometry

Row | Protein | stoichiometry N
1 | B1 | 4
2 | B2 | 4
3 | B3 | 4
4 | B4 | 4
5 | B5 | 4
6 | B6 | 4
7 | B7 | 4

— PMC7898959, “Identification of an amino-terminus determinant critical for ryanodine receptor/Ca^2+ release channel function” (Cardiovascular Research, 2020)
